Consider one substance from US20120005127A1.

This test addresses IL-1 receptor (human) (UniProt P14778). Put plainly: cell-based or functional assay.
Sequence of UniProt P14778 (P14778 18-569): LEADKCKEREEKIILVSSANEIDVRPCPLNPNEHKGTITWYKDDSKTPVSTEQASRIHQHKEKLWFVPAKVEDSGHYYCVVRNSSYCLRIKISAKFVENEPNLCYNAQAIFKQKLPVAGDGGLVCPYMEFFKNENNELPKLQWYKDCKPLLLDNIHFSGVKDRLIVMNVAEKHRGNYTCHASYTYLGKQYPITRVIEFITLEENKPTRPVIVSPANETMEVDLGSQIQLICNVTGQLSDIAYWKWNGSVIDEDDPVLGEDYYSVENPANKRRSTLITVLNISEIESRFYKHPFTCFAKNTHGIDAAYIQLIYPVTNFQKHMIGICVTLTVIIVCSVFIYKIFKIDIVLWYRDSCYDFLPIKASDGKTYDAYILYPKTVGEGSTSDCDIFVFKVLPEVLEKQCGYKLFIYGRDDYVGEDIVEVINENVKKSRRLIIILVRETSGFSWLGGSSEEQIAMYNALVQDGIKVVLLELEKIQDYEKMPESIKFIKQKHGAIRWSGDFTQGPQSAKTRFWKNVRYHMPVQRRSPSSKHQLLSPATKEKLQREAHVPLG

As to “Kineret® (anakinra) (from UniProt P18510 26-177) (ligand)”, the IC50 (pM): inhibition of IL-1β induced production of IL-8 in human whole blood is 53.4 pM.
